Legend:
Assay in all cases: BLI; reverse outlay: full-length IgG-like constructs (50 ug/mL) loaded on anti-human Fc tips; VEGF in 2-fold dilutions from 500 nM; 25 C, PBS with Kinetic Buffer
TRA-CT6ZWY = biological target: TRA-CT6ZWY
TRA-CT6 mAb^2 = biological target: TRA-CT6 mAb^2
[1] = biological target: TRA-CT6_(ZWHY)/CH3_(ZWLY)
[2] = biological target: TRA-CH3_(ZWHY)/CT6_(ZWLY)
TRA-CT6ZW-FT = biological target: TRA-CT6ZW-FT

Kd (TRA-CT6ZWY): 16.6 nM
Kd (TRA-CT6 mAb^2): 2.78 nM
Kd [1]: 16.7 nM
Kd [2]: 6.2 nM
Kd (TRA-CT6ZW-FT): 1.48 nM
Substance: VEGF isomer 109 with N75Q mutation (ligand)

From paper PMC7920882
